Assay results as given in article PMC6590076.

Target: 14-3-3β (UniProt P31946)
Test: in vitro pull-down, immobilized phosphoprotein

Substance	binding against the reference (reference: FOXO3A with Ser253 (supD tRNA), sites S253)	binding against the reference (reference: FOXO3A with Ser413 (supD tRNA), sites S413)
FOXO3A (from UniProt O43524) FOXO3A with pSer253 (SepOTSλ)	stronger	–
FOXO3A (from UniProt O43524) FOXO3A with pSer413 (SepOTSλ)	–	stronger
